Values quoted from earlier work in publication PMC7561359.

Target: IFNAR1 (Homo sapiens) (UniProt P17181)
Sequence of UniProt P17181 (P17181 28-436): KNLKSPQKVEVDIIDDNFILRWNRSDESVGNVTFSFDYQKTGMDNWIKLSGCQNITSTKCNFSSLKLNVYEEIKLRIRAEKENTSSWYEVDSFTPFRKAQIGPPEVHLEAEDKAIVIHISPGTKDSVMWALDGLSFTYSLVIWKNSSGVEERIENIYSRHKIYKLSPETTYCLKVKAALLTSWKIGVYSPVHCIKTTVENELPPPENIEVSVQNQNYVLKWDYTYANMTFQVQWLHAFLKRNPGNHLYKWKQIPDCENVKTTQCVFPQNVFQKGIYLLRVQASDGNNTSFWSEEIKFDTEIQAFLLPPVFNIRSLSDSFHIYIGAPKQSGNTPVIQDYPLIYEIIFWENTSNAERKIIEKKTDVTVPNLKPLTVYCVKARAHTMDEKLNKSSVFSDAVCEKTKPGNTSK

Substance: IFNβ (from UniProt P01574)
- Kd: 100 nM
